Reference: the supplement of paper PMC12042874
± gives the uncertainty stated by the source.

assay: amyloid nucleation score (Sup35N fusion, yeast selection) (log enrichment); library NNK3; higher = more nucleation; inactive = no reads after selection
Method in brief: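 DiMSum was used to calculate nucleation scores as log enrichment of output over input reads, centred on the mode score of non-aggregating sequences. Sequences with fewer than 100 input reads were not scored. Input and output came from Illumina sequencing of plasmid inserts in psi-negative yeast expressing peptides of 20 random codons fused to Sup35N, induced 24 hours with 100 μM copper sulfate and then grown 7 days at 30°C on medium lacking adenine and uracil.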

Amyloid nucleation score, 1.34 ± 0.11:
MNKFLSVAIQGIYVERNAHV

Amyloid nucleation score, 0.116 ± 0.66:
YCFSWNHR

Amyloid nucleation score, -0.2 ± 0.96:
EQYRSTTGLESL

Amyloid nucleation score, 1.94 ± 0.071:
KYPSYLNLSCVAVKYVWCSE

Amyloid nucleation score, 0.445 ± 0.2:
ITYAQSLKLCRTRVIGGLMY

Amyloid nucleation score, 0.297 ± 0.7:
LASKLDCVLPHYNVGRCNDP

Amyloid nucleation score, -0.291 ± 0.68:
KYYTSRNRWRYMV

Amyloid nucleation score, 1.57 ± 0.075:
CSLTRFRWGYRTFEDNAPFH

Amyloid nucleation score, -0.076 ± 0.73:
RREGGTPIAHPLLGPGP

Amyloid nucleation score, -0.709 ± 0.41:
FGRYPMYIASLITNSKVFGC

Amyloid nucleation score, inactive:
TRMWYGLLAENGCAYLGCNW
IVGNLRDKDNYIVGRLEDSD
YVFVRS
NDGTSILSTQSLSVRWMVRV
SYQDMLSYNRMR
CFVDFYSWWLSITVQGLHNN
CKPDLMA
VDMSELVWIISPEVHTVSCS
AKYIEHGYCF
YFAWNRKVNYTRS
RKSGYFP
HRYASVGSTYWGYKVDLLWC
LVILVVDSRRYDMCLSNRDF
VHTVTSCNLKDLLMKIHCTR
LRSFKSKICVERLRDEIILL
IEVIYGV
ASDNWESRPSRSSDKSGVIG
SLSYTRCCQNTILIKRYGLE
LVSERKAKNSRSGSLAFFRR
KRLHTS
CLWKG
TDVLELVSTHCRYGFSVPQP
WSYTAKGVW
LDRKFGLRYNGTSYTCDSMV
WISFFT
GYLRNMVWRMSQYIREVCPR
ITLRDVGGHGANLWEGMQFM
APIKIRFD
FLYYIPWDYL
NLSWKGNAQDCLMGSVL
NRFINASNS
MWSIVSGDKVGSSPVLGGCV
FLERISFYIKLVSRSYGGTS
KAVQAVVLSLTGWFGVERLY
IYGNFS
GVGLIE
YANCLDNIPDRVQDMYSCFS
IHPVNLRVLSFGHIWCWYLR
HRKKYFLSPIVGPRTPRLCT
LSVNYKLGQYRTLWFHHSLG
FVCCYVYAQQLRRRYIFNLS
GSWDI
LLGMLIRGDAF
VYLRHWAIYVIESVLQGSCR
SFLLFYVLRYP
RMNYNAYRIFLTPISDWCNL
GKVATHSIHDYFELSMTKGC
IYGLPRYFVGYGFFKSYVRL
SSQDVTALLSRLN
HCSYCVVSE
CRSLSLTSGIKF
VPGYLWECS
KCYLKSGLDNLVYDLD
SLDCCNGVDRFKVSNILHYP
WRVYVFNVLETYMLRVKWVG
WGRISNAHG
AWISGHVRVKLSFRLTFFLK
KILLHRRHVTPCFKCLNRLD
IVREVGTA
VEFSPMFHQGVTM
NAYLCGWL
SCTYVSFVSSVRVTA
YWFFIIIFNNIHSADGFIVS
CYEGR
YTALHWLYFVSCKFDEKVQW
LGCKESSVPPARVRGPGQAI
NLYFGHKSTS
MSYSGTAHGDFLLRSCPARM
TVTVQYTG
NRNFYGL
RSMTWFSQDYVSVHRVL
QGNWHYWCKDVRKLSLPKEL
GFRFNKIRMSPDSNTLCGCA
LCNKWY
NLPLKFDTFTFLCVRLNSLS
LWLTLGDGIEGVYPRVGVKL
CYELLESS
TYNRHSFLA
YQDLP
EYESMI
KRLFVTFFLSSLRGNILMWG
NFDKFDRRRWVMIIVYMAPA
GPHRILIAVESMTYFEGEVW
QLYSHNRYTLGYTMLSRFVS
LSIGFNLWSKLKYSRKVSGM
NWSSRFMTT
GLFSLIIR
VEGCKEGVRVYHLTFESFVI
VSWHNILMWTRTPL
LQDIPLFFCCVLFCVATMAL
ERSQKWVNF
FCRSVLTLKKKLMFYTLRHC
SAWLATGTYEVKAQRG
YCAALGSSY
DHCGNFEDRWICVINNMRVS
IPSVFKLSVWGYADSTCLRR
WSSVFESLQSLMIIFRRLAD
LRWSIEGFLVSMMKY

Amyloid nucleation score, 1.87 ± 0.073:
TCCLIF

Amyloid nucleation score, 2.28 ± 0.09:
IFLLAVNSGINVTGCPLPKG

Amyloid nucleation score, 2.58 ± 0.085:
IVVLNVNTPWSMFQGVGSIQ

Amyloid nucleation score, 0.752 ± 0.13:
CWKQGLNRYLWW

Amyloid nucleation score, 0.789 ± 0.25:
YHLDIKNFHTLCWGPYFTSM

Amyloid nucleation score, 0.431 ± 0.68:
TVTWFDINCMVGFLY

Amyloid nucleation score, -0.083 ± 1.1:
RQGRYEHQRGPFSLVSQVG

Amyloid nucleation score, -0.926 ± 1.1:
SLLVLETDGCFPVAPLAGDS

Amyloid nucleation score, 0.647 ± 0.34:
TVLLYLNDMVNNNFGFEGSF

Amyloid nucleation score, 1.77 ± 0.098:
VIHQIMIMYGVYPASMKLFF

Amyloid nucleation score, 0.708 ± 0.13:
CLIYTTVFHSAG

Amyloid nucleation score, 0.199 ± 0.32:
TQFIELS

Amyloid nucleation score, -1.06 ± 2.4:
SMSPFRKFLTFWNMGPKRTL
